Results reported in patent US20190134153A1, “IMMUNOMODULATORY EFFECT OF INHALED KINASE INHIBITOR PEPTIDES IN LUNG” (MOERAE MATRIX, INC., priority 2017, published 2019).

Experiments:
Assay in all cases: Kinase Profiling Assay
Type in all cases: biochemical
Details in all cases: 100 μM
[1] = biological target: ALK(h) (Homo sapiens, UniProt Q9UM73)
[2] = biological target: Fms(h) (Homo sapiens, UniProt P07333)
[3] = biological target: IR(h) (Homo sapiens, UniProt P06213)
[4] = biological target: Met(M1268T)(h) (Homo sapiens, UniProt P08581, M1250T)
[5] = biological target: T1, PKCμ(h) (Homo sapiens, UniProt Q15139)
T1 sequence (Q15139 1-912): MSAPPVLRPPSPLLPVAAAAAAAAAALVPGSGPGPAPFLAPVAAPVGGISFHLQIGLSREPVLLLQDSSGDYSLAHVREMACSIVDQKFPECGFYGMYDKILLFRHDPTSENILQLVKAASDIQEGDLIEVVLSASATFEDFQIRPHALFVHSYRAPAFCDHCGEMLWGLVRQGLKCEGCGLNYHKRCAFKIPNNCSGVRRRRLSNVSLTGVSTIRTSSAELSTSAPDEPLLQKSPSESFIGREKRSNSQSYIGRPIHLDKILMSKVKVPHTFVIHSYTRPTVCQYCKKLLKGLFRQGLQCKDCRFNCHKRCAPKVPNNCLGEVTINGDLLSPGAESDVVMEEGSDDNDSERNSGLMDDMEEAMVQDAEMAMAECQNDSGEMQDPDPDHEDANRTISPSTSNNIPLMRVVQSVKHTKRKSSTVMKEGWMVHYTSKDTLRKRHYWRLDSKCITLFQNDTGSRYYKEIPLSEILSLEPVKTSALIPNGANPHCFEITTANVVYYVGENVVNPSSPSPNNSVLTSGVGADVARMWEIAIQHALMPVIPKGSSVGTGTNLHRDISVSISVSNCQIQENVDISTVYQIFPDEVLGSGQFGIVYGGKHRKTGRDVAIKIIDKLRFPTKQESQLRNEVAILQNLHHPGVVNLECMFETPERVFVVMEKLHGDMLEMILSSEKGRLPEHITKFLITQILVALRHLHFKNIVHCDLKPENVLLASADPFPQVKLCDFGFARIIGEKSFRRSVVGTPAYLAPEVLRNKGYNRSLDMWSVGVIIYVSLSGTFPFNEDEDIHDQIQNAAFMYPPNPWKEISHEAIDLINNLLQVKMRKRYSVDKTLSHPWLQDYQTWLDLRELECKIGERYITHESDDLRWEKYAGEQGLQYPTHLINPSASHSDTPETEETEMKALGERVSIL

[6] = biological target: T2, ULK2(h) (Homo sapiens, UniProt Q8IYT8)
T2 sequence (Q8IYT8 1-1036): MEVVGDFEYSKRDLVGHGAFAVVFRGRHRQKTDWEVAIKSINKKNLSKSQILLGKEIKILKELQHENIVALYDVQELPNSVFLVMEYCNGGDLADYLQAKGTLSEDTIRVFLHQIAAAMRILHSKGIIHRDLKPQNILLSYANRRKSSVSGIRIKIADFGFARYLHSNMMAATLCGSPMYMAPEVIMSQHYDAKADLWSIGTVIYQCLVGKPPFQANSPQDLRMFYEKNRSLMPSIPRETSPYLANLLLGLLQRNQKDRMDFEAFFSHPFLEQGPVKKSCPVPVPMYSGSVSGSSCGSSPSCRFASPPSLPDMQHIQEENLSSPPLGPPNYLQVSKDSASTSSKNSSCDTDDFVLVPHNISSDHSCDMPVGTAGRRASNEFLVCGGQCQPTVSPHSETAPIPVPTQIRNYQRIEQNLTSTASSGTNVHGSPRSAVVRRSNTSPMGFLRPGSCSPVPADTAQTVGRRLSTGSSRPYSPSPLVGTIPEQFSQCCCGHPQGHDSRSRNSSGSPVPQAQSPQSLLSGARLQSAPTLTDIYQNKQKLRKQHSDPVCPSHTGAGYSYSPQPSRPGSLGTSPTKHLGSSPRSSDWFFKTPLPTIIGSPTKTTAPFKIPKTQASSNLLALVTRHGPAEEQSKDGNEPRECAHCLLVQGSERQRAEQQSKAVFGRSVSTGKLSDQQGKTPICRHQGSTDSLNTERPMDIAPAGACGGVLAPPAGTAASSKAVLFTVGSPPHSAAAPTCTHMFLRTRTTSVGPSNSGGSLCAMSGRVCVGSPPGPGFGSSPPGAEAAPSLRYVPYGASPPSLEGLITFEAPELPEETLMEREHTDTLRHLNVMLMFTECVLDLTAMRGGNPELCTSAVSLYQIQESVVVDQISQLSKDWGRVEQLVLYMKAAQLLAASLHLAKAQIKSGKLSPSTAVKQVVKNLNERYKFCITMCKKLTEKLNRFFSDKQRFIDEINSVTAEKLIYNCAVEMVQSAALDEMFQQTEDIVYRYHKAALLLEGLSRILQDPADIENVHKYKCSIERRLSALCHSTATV

[7] = biological target: WNK3(h) (Homo sapiens, UniProt Q9BYP7)
[8] = biological target: T3, ZAP-70(h) (Homo sapiens, UniProt P43403)
T3 sequence (P43403 1-619): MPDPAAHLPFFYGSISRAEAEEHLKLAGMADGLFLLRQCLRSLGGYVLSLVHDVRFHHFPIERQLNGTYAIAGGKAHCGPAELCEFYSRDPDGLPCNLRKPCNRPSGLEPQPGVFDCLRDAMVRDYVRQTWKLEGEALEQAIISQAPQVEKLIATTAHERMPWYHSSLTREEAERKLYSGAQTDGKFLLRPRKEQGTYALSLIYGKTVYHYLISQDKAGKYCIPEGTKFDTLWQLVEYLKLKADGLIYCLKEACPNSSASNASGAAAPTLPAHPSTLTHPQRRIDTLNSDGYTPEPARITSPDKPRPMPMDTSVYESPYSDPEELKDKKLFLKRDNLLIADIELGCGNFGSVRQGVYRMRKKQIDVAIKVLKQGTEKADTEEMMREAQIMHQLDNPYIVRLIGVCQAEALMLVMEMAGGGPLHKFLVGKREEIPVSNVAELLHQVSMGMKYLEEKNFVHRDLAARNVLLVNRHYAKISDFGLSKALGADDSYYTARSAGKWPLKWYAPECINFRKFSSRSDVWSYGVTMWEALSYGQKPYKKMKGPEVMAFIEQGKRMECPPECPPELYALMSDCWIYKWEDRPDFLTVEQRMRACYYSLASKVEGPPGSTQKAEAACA

[9] = biological target: Flt4(h) (Homo sapiens, UniProt P35916)
Sequence of Flt4(h) (P35916 25-1363): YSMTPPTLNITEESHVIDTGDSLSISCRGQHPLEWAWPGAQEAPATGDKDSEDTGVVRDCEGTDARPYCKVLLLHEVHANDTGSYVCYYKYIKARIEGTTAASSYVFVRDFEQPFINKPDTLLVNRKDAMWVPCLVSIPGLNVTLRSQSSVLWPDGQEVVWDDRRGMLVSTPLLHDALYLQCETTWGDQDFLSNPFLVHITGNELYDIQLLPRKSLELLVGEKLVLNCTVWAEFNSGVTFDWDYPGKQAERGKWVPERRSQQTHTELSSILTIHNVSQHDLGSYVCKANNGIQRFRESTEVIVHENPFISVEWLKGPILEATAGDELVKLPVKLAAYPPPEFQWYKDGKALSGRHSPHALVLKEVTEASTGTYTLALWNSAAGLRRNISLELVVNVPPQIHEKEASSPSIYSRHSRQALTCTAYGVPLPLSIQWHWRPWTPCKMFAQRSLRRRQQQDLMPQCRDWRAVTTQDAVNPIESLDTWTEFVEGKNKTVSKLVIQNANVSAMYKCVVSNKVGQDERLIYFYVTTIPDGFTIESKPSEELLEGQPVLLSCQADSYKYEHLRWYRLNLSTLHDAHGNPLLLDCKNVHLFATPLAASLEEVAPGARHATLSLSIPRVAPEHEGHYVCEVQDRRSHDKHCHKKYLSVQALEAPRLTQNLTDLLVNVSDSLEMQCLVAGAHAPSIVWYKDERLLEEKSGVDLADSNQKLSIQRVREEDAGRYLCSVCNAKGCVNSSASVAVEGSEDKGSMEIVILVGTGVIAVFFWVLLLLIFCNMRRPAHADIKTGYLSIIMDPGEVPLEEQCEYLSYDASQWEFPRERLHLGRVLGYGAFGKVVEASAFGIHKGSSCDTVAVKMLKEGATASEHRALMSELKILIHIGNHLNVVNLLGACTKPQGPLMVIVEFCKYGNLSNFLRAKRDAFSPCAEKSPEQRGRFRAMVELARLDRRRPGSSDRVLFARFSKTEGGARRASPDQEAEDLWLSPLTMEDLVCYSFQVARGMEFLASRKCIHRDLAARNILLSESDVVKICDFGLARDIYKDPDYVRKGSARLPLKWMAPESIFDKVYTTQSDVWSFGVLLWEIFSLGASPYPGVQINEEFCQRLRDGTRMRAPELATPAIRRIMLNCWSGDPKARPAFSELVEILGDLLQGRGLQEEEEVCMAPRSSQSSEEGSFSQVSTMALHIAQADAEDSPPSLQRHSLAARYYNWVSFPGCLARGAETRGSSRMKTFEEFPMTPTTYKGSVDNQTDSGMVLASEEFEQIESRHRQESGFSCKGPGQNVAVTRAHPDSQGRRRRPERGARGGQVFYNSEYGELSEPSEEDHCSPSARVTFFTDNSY

Sequence of WNK3(h) (Q9BYP7 whole entry): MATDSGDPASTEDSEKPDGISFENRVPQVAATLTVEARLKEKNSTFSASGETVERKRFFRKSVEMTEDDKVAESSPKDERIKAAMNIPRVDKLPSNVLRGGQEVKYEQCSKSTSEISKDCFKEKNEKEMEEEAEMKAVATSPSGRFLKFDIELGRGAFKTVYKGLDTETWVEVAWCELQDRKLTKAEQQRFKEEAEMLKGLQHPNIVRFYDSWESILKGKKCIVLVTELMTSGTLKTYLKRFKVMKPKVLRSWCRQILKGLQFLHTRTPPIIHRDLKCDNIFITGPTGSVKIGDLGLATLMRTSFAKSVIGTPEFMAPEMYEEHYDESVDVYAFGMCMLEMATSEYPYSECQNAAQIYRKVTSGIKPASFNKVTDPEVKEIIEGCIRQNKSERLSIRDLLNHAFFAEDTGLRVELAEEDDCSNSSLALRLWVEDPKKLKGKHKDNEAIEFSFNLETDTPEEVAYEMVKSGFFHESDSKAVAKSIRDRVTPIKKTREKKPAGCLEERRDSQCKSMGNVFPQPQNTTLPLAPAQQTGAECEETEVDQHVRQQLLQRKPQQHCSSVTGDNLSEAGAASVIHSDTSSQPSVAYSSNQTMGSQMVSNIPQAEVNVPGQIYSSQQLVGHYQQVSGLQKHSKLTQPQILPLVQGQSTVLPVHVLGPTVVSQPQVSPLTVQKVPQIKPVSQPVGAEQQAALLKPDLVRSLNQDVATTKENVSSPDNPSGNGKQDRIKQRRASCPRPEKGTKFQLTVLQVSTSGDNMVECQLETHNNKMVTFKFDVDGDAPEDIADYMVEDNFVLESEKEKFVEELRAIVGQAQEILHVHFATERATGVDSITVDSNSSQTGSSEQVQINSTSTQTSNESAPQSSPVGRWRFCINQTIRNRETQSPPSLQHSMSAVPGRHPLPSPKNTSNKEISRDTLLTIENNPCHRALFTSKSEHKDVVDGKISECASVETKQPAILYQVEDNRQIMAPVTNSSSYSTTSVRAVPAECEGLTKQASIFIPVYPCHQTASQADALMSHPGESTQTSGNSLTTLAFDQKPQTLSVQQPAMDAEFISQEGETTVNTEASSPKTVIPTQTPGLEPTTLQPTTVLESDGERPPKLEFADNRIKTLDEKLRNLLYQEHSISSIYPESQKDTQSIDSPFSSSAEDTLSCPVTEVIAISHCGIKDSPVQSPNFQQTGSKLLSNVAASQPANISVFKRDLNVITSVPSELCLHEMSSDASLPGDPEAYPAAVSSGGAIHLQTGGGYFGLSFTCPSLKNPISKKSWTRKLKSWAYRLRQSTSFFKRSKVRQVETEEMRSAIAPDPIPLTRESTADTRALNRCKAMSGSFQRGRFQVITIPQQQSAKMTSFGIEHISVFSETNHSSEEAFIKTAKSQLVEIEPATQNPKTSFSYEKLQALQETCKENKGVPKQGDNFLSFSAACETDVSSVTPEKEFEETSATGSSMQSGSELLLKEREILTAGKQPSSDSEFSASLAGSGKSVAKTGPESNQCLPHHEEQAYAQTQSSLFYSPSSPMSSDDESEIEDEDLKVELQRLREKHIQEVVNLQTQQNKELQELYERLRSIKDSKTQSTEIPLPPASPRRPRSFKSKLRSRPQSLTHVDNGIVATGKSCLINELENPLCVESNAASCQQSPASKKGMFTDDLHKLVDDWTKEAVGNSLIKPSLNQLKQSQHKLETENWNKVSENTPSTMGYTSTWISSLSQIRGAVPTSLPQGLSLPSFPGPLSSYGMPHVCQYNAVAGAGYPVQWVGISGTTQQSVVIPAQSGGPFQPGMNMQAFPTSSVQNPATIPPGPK
Sequence of ALK(h) (Q9UM73 19-1620): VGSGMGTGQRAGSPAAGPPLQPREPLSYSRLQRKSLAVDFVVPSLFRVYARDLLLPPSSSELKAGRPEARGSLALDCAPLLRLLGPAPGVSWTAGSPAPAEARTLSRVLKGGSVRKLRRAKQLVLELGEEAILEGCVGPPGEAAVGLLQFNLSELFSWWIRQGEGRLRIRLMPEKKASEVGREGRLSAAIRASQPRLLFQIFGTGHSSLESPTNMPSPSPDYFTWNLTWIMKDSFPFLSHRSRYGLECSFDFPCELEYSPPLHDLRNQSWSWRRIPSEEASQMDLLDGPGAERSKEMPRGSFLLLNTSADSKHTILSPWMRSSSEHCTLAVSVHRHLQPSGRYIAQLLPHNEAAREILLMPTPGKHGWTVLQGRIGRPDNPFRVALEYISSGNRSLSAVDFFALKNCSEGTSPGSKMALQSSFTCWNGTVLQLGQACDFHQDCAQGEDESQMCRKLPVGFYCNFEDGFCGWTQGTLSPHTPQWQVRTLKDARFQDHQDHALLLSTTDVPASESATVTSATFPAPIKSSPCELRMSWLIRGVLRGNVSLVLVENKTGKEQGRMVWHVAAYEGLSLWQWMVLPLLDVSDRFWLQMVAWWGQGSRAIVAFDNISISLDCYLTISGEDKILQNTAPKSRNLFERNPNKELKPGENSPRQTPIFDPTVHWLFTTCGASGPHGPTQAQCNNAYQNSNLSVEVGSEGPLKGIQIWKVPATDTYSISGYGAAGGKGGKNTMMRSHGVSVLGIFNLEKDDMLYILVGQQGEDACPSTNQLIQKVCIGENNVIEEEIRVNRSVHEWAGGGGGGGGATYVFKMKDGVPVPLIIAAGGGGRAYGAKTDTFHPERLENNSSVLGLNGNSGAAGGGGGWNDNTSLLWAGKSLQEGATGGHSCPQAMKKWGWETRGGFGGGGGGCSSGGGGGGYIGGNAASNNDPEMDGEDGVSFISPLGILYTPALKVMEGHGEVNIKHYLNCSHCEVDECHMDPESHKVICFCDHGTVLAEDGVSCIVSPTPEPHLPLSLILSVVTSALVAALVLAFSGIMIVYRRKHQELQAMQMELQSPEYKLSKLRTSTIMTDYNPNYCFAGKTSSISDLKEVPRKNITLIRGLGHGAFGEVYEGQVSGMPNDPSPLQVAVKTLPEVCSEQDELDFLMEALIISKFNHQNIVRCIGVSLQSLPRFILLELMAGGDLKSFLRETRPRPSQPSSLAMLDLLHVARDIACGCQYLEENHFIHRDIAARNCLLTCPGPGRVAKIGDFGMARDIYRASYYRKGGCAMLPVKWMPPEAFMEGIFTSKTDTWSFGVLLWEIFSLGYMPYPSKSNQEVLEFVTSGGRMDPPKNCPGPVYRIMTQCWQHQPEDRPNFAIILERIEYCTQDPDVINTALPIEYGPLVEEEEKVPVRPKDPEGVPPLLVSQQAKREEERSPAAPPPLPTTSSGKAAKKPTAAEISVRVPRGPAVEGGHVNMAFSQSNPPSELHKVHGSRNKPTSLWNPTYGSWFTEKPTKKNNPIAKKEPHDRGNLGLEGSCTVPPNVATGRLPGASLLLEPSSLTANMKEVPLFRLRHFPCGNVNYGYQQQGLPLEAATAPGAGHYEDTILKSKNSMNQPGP

| Sequence | % activity [1] [%] | % activity [2] [%] | % activity [3] [%] | % activity [4] [%] | % activity [5] [%] | % activity [6] [%] | % activity [7] [%] | % activity [8] [%] | % activity [9] [%] |
| --- | --- | --- | --- | --- | --- | --- | --- | --- | --- |
| YARAAARQARAKALNRQLGVA [MMI-0200] | 95 | 92 | 90 | 143 | 73 | 132 | 97 | 58 | – |
| FAKLAARLYRKALARQLGVAA [MMI-0300] | 19 | 45 | 96 | 255 | 22 | 122 | 77 | 75 | 83 |
| KAFAKLAARLYRKALARQLGVAA [MMI-0400] | 16 | 37 | 85 | 265 | 14 | 131 | 74 | 33 | 89 |
| HRRIKAWLKKIKALARQLGVAA [MMI-0500] | 12 | 14 | 95 | 239 | 10 | 124 | 9 | 1 | 73 |
